Legend:
[1] = system: Akt phosphorylation of the HepG2 cells; assay: Akt phosphorylation of HepG2 cells incubated with recombinant mLeg1-Re, alone or with wild-type mLeg1; assay type: cell-based, human
Method: 23.3 The extracted recombinant protein mLeg1-Re and the wild type mLeg1 protein were used to incubate the HepG2 cells, and then the Akt phosphorylation level of the HepG2 cell was detected. As to the details, reference can be made to step 18.2.2.
The partially purified wild-type mLeg1 protein (50 ng) was mixed with excess mLeg1-Re protein (500 ng) for 10 minutes, and then used to incubate HepG2 cell for 10 minutes, and then the Akt phosphorylation level was detected in these cells. […] It is highly likely attributed to the fact that the mLeg1-Re protein is also capable of competitively binding to the EGFR, thereby blocking the ability of the wild-type mLeg1 to bind to the EGFR and activate downstream Akt.

EGFR = molecular target: T1, EGFR (Mus musculus, UniProt Q01279); assay: EGFR pulled down with mLeg1-Re from liver after intragastric administration (co-immunoprecipitation); assay type: in vivo; settings: liver of mLeg1Δ/Δ mice, two hours after the intragastric administration
T1 construct: from tissue; host or cells: liver of mLeg1^Δ/Δ mice
From the text: (§1) In order to further verify this hypothesis, the inventors administered the mLeg1-Re protein to the mLeg1^Δ/Δ mice by intragastric administration, and detected, by the method of co-immunoprecipitation, whether the mLeg1-Re protein could reach the liver and bind to EGFR in the liver.

[2] = Body weight increase of wild type mice on high-fat diet with intragastric mLeg1-Re; assay type: in vivo, mouse; settings: 20 μg intragastric every day, one month
Method: 23.4 10-weeks old wild type mice having the similar body weight (t1) were randomly divided into 3 groups with 3 to 4 mice in each group. The wild type mice were fed with high-fat diet and intragrastric administration with 20 μg of mLeg1-Re protein every day, which served as mLeg1-Re administration experimental group. Another group of wild type mice of the same age were fed with the same high-fat diet and intragrastric administration with the same amount of bovine serum albumin (BSA) every day, which served as BSA administration control group. The left group of wild type mice at the same age were fed with the same standard chow diet, which served as another control group. One month later, the body weight (t2) of these mice were measured, and the results were represented by increased body weight […]. The experiment was repeated twice, and the final body weight changes (i.e., increased body weight) were averaged.

[3] = mLeg1-Re protein in liver of mLeg1Δ/Δ mice after intragastric administration (co-immunoprecipitation); assay type: in vivo, mouse; settings: two hours after the intragastric administration
From the text: as §1

B1: mLeg1-Re protein: modification-defective recombinant mLeg1 protein expressed in an Escherichia coli expression system (protein)
chain: EVSDSSDPYPPLWEDSPEQLSDYMMEDGNYIINPWVYTDRMGMYRILLEETAMYFAKYGPENEQNLLWGLPLQFGWQYQSGRLADPTGMTDCGNELNESLCVSVDSWWADINYYLSVIPFLAAVDSGITGISPNQITILPPPKDQMRFCYNVSDCQSAVPGTMNRWRDFFQYMQLNSSDFDGLLNYLWEAHASSLDYPTSAFGDRYNFYSEKEANFEENWAIAVNYLAAARLPTTQNRTYSFQRGLPPRVLVDTDIAPFIPDFTPLQNEVLVSLKLLGDTDRNSGSLSLTLWENLMSTKLARTLFLKAFEEFLATSS
modifications: left off: small tags and cut ends
notes: modification-defective recombinant mLeg1 protein expressed in an Escherichia coli expression system
ability to induce Akt phosphorylation ([1]; HepG2 incubated with mLeg1-Re alone): lost the ability to induce Akt phosphorylation
ability of the mLeg1 protein to activate Akt ([1]; HepG2 incubated with mLeg1-Re for 10 minutes first, then mLeg1 added): completely inhibited
inhibition of mLeg1-induced Akt phosphorylation ([1]; mLeg1 (50 ng) mixed with excess mLeg1-Re (500 ng) for 10 minutes, then HepG2 10 minutes): cannot inhibit the functions of the mLeg1 protein
EGFR in the protein pulled down by the mLeg1 antibody (EGFR): significant EGFR protein level could be detected
body weight increase compared with BSA control group [2]: significantly lower
body weight increase compared with mice fed standard chow diet [2]: almost the same as that of the mice fed with standard chow diet
mLeg1-Re protein in the liver [3]: could be detected in the liver

Source: patent publication US20180312557A1, “Leg1 Protein, Leg1 Gene, and Uses and Drugs thereof” (ZHEJIANG UNIVERSITY, priority 2016, published 2018)
